Test results from the supplement of paper PMC5998384.

Assays:
[1] = system: HeLa Kyoto; test: melting temperature (median over replicates), in situ; higher = more thermally stable
[2] = system: HeLa Kyoto; test: solubility change mitosis vs G1/S (difference of NP-40 vs SDS log2 ratios) (log2 ratio difference); higher = more soluble in mitosis
[3] = system: HeLa Kyoto; test: thermal stability score vs G1/S (z-score of summed log2 fold changes over temperatures); higher = more thermally stable than in G1/S
[4] = system: HeLa Kyoto; test: solubility in G1/S (NP-40 vs SDS abundance) (log2 ratio); higher = more soluble; details: cell cycle stage: G1/S
[5] = cell cycle stage: early G1 (4.5 h after nocodazole release)
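For melting temperature (median over replicates), in situ in this document: HeLa Kyoto cells synchronized by double thymidine or nocodazole block, proteins quantified by TMT10plex mass spectrometry, three independent biological replicates.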
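For solubility change mitosis vs G1/S (difference of NP-40 vs SDS log2 ratios) in this document: synchronized HeLa Kyoto cells (double thymidine block for G1/S, nocodazole release for mitosis), protein amounts in NP-40 versus SDS lysates quantified by mass spectrometry, three biological replicates.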
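For solubility in G1/S (NP-40 vs SDS abundance) in this document: HeLa Kyoto cells arrested at G1/S by double thymidine block, proteins quantified by TMT10plex mass spectrometry in mild NP-40 versus SDS extracts, three biological replicates.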
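For thermal stability score vs G1/S (z-score of summed log2 fold changes over temperatures) in this document: synchronized HeLa Kyoto cells, proteins quantified by TMT10plex mass spectrometry, three biological replicates, mitosis taken 0.5 h after nocodazole release, G1/S directly after double thymidine block.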

Chain of TIMM17A (chain, as listed by the source): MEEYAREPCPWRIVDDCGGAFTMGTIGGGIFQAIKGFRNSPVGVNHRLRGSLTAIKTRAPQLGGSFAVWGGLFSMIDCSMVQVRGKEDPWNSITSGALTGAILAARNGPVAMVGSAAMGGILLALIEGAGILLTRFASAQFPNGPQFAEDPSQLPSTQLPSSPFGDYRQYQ

Row | Substance | melting temperature ([1]; cell cycle stage: G1/S) [°C] | melting temperature ([1]; cell cycle stage: mitosis) [°C] | solubility change mitosis (log2) [2] | thermal stability score [3, 5] | thermal stability score ([3]; cell cycle stage: mitosis) | solubility in G1/S (log2) [4]
1 | MAIQFRSLFPLALPGMLALLGWWWFFSRKKGHVSSHDEQQVEAGAVQLRADPAIKEPLPVEDVCPKVVSTPPSVTEPPEKELSTVSKLPAEPPALLQTHPPCRRSESSGILPNTTDMRLRPGTRRDDSTKLELALTGGEAKSIPLECPLSSPKGVLFSSKSAEVCKQDSPFSRVPRKVQPGYPVVPAEKRSSGERARETGGAEGTGDAVLGEKVLEEALLSREHVLELENSKGPSLASLEGEEDKGKSSSSQVVGPVQEEEYVAEKLPSRFIESAHTELAKDDAAPAPPVADAKAQDRGVEGELGNEESLDRNEEGLDRNEEGLDRNEESLDRNEEGLDRNEEIKRAAFQIISQVISEATEQVLATTVGKVAGRVCQASQLQGQKEESCVPVHQKTVLGPDTAEPATAEAAVAPPDAGLPLPGLPAEGSPPPKTYVSCLKSLLSSPTKDSKPNISAHHISLASCLALTTPSEELPDRAGILVEDATCVTCMSDSSQSVPLVASPGHCSDSFSTSGLEDSCTETSSSPRDKAITPPLPESTVPFSNGVLKGELSDLGAEDGWTMDAEADHSGGSDRNSMDSVDSCCSLKKTESFQNAQAGSNPKKVDLIIWEIEVPKHLVGRLIGKQGRYVSFLKQTSGAKIYISTLPYTQSVQICHIEGSQHHVDKALNLIGKKFKELNLTNIYAPPLPSLALPSLPMTSWLMLPDGITVEVIVVNQVNAGHLFVQQHTHPTFHALRSLDQQMYLCYSQPGIPTLPTPVEITVICAAPGADGAWWRAQVVASYEETNEVEIRYVDYGGYKRVKVDVLRQIRSDFVTLPFQGAEVLLDSVMPLSDDDQFSPEADAAMSEMTGNTALLAQVTSYSPTGLPLIQLWSVVGDEVVLINRSLVERGLAQWVDSYYTSL [AKAP1] | 50.3 | 50.6 | -0.0592 | 0.769 | 1.64 | -0.0583
2 | MKVARFQKIPNGENETMIPVLTSKKASELPVSEVASILQADLQNGLNKCEVSHRRAFHGWNEFDISEDEPLWKKYISQFKNPLIMLLLASAVISVLMHQFDDAVSITVAILIVVTVAFVQEYRSEKSLEELSKLVPPECHCVREGKLEHTLARDLVPGDTVCLSVGDRVPADLRLFEAVDLSIDESSLTGETTPCSKVTAPQPAATNGDLASRSNIAFMGTLVRCGKAKGVVIGTGENSEFGEVFKMMQAEEAPKTPLQKSMDLLGKQLSFYSFGIIGIIMLVGWLLGKDILEMFTISVSLAVAAIPEGLPIVVTVTLALGVMRMVKKRAIVKKLPIVETLGCCNVICSDKTGTLTKNEMTVTHIFTSDGLHAEVTGVGYNQFGEVIVDGDVVHGFYNPAVSRIVEAGCVCNDAVIRNNTLMGKPTEGALIALAMKMGLDGLQQDYIRKAEYPFSSEQKWMAVKCVHRTQQDRPEICFMKGAYEQVIKYCTTYQSKGQTLTLTQQQRDVYQQEKARMGSAGLRVLALASGPELGQLTFLGLVGIIDPPRTGVKEAVTTLIASGVSIKMITGDSQETAVAIASRLGLYSKTSQSVSGEEIDAMDVQQLSQIVPKVAVFYRASPRHKMKIIKSLQKNGSVVAMTGDGVNDAVALKAADIGVAMGQTGTDVCKEAADMILVDDDFQTIMSAIEEGKGIYNNIKNFVRFQLSTSIAALTLISLATLMNFPNPLNAMQILWINIIMDGPPAQSLGVEPVDKDVIRKPPRNWKDSILTKNLILKILVSSIIIVCGTLFVFWRELRDNVITPRDTTMTFTCFVFFDMFNALSSRSQTKSVFEIGLCSNRMFCYAVLGSIMGQLLVIYFPPLQKVFQTESLSILDLLFLLGLTSSVCIVAEIIKKVERSREKIQKHVSSTSSSFLEV [ATP2C1] | 54.1 | 54.2 | -0.0972 | -1.8 | -1.34 | -0.143
3 | MLEEDMEVAIKMVVVGNGAVGKSSMIQRYCKGIFTKDYKKTIGVDFLERQIQVNDEDVRLMLWDTAGQEEFDAITKAYYRGAQACVLVFSTTDRESFEAVSSWREKVVAEVGDIPTVLVQNKIDLLDDSCIKNEEAEALAKRLKLRFYRTSVKEDLNVNEVFKYLAEKYLQKLKQQIAEDPELTHSSSNKIGVFNTSGGSHSGQNSGTLNGGDVINLRPNKQRTKKNRNPFSSCSIP [RAB23] | 53.2 | 53.2 | -0.139 | 1.88 | 1.67 | -0.0011
4 | TIMM17A | 58.5 | 58.7 | -0.00894 | -1.93 | -3.23 | 0.157
5 | MLGPHLPPPPLAPSEGRPTPCAFQIPDGSYRCLALEAEESSGEEGLQGEVGPTDLEEDEGVSRSGDDSACRVTQGTPQLPKALGIQPPSCSREEQGASQHDDRASQDWDVVKAGQMMTASPSPGPGPRVAQKPALGRSTSLTEKDLKEAKARSQQIAAQLTTPPSSNSRGVQLFNRRRQRVNEFTLESHGQRGQKPSQESLRVLPSSLPGHAPGLSLSSTSLPEPGPPRHPSPQSPDRGVPGHSMEGYSEEASLLRHLEKVASEEEEVPLVVYLKENAALLTANGLHLSQNREAQQSSPAPPPAEVHSPAADVNQNLASPSATLTTPTSNSSHNPPATDVNQNPPATVVPQSLPLSSIQQNSSEAQLPSNGTGPASKPSTLCADGQPQAPAEEVRCSTLLIDKVSTPATTTSTFSREATLIPSSRPPASDFMSSSLLIDIQPNTLVVSADQEMSGRAAATTPTKVYSEVHFTLAKPPSVVNRTARPFGIQAPGGTSQMERSPMLERRHFGEKAPAPQPPSLPDRSPRPQRHIMSRSPMVERRMMGQRSPASERRPLGNFTAPPTYTETLSTAPLASWVRSPPSYSVLYPSSDPKSSHLKGQAVPASKTGILEESMARRGSRKSMFTFVEKPKVTPNPDLLDLVQTADEKRRQRDQGEVGVEEEPFALGAEASNFQQEPAPRDRASPAAAEEVVPEWASCLKSPRIQAKPKPKPNQNLSEASGKGAELYARRQSRMEKYVIESSSHTPELARCPSPTMSLPSSWKYPTNAPGAFRVASRSPARTPPASLYHGYLPENGVLRPEPTKQPPYQLRPSLFVLSPIKEPAKVSPRAASPAKPSSLDLVPNLPKGALPPSPALPRPSRSSPGLYTSPGQDSLQPTAVSPPYGGDISPVSPSRAWSPRAKQAPRPSFSTRNAGIEAQVWKPSFCFK [SYNPO] | – | 52.8 | 1.62 | -0.595 | -3 | -1.65
6 | MLDFFTIFSKGGLVLWCFQGVSDSCTGPVNALIRSVLLQERGGNNSFTHEALTLKYKLDNQFELVFVVGFQKILTLTYVDKLIDDVHRLFRDKYRTEIQQQSALSLLNGTFDFQNDFLRLLREAEESSKIRAPTTMKKFEDSEKAKKPVRSMIETRGEKPKEKAKNSKKKGAKKEGSDGPLATSKPVPAEKSGLPVGPENGVELSKEELIRRKREEFIQKHGRGMEKSNKSTKSDAPKEKGKKAPRVWELGGCANKEVLDYSTPTTNGTPEAALSEDINLIRGTGSGGQLQDLDCSSSDDEGAAQNSTKPSATKGTLGGMFGMLKGLVGSKSLSREDMESVLDKMRDHLIAKNVAADIAVQLCESVANKLEGKVMGTFSTVTSTVKQALQESLVQILQPQRRVDMLRDIMDAQRRQRPYVVTFCGVNGVGKSTNLAKISFWLLENGFSVLIAACDTFRAGAVEQLRTHTRRLSALHPPEKHGGRTMVQLFEKGYGKDAAGIAMEAIAFARNQGFDVVLVDTAGRMQDNAPLMTALAKLITVNTPDLVLFVGEALVGNEAVDQLVKFNRALADHSMAQTPRLIDGIVLTKFDTIDDKVGAAISMTYITSKPIVFVGTGQTYCDLRSLNAKAVVAALMKA [SRPR] | 50.5 | 50.9 | -0.0915 | 1.98 | 2.56 | 0.119
7 | MYOF | 53.8 | 53.4 | -0.129 | -1.57 | -1.2 | -0.326
8 | MRRMWATQGLAVALALSVLPGSRALRPGDCEVCISYLGRFYQDLKDRDVTFSPATIENELIKFCREARGKENRLCYYIGATDDAATKIINEVSKPLAHHIPVEKICEKLKKKDSQICELKYDKQIDLSTVDLKKLRVKELKKILDDWGETCKGCAEKSDYIRKINELMPKYAPKAASARTDL [MANF] | 54.1 | 52.7 | 0.0195 | -0.366 | -3.76 | 0.682
9 | MAEVSIDQSKLPGVKEVCRDFAVLEDHTLAHSLQEQEIEHHLASNVQRNRLVQHDLQVAKQLQEEDLKAQAQLQKRYKDLEQQDCEIAQEIQEKLAIEAERRRIQEKKDEDIARLLQEKELQEEKKRKKHFPEFPATRAYADSYYYEDGGMKPRVMKEAVSTPSRMAHRDQEWYDAEIARKLQEEELLATQVDMRAAQVAQDEEIARLLMAEEKKAYKKAKEREKSSLDKRKQDPEWKPKTAKAANSKSKESDEPHHSKNERPARPPPPIMTDGEDADYTHFTNQQSSTRHFSKSESSHKGFHYKH [CCDC50] | 57.7 | 55 | 0.182 | -5.07 | -1.65 | 0.334
10 | MSESLVVCDVAEDLVEKLRKFRFRKETNNAAIIMKIDKDKRLVVLDEELEGISPDELKDELPERQPRFIVYSYKYQHDDGRVSYPLCFIFSSPVGCKPEQQMMYAGSKNKLVQTAELTKVFEIRNTEDLTEEWLREKLGFFH [GMFB] | 55.4 | 55.6 | 0.123 | -2.8 | -3.58 | 0.3
11 | MAAHRPGPLKQQNKAHKGGRHRGRGSAQRDGKGRLALKTLSKKVRKELSRVDQRHRASQLRKQKKEAVLAEKRQLGGKDGPPHQVLVVPLHSRISLPEAMQLLQDRDTGTVHLNELGNTQNFMLLCPRLKHRWFFTSARPGDLHVVLDMAKVADTILFLLDPLEGWDSTGDYCLSCLFAQGLPTYTLAVQGISGLPLKKQIDTRKKLSKAVEKRFPHDKLLLLDTQQEAGMLLRQLANQKQQHLAFRDRRAYLFAHAVDFVPSEENNLVGTLKISGYVRGQTLNVNRLLHIVGYGDFQMKQIDAPGDPFPLNPRGIKPQKDPDMAMEICATDAVDDMEEGLKVLMKADPGRQESLQAEVIPDPMEGEQTWPTEEELSEAKDFLKESSKVVKKVPKGTSSYQAEWILDGGSQSGGEGDEYEYDDMEHEDFMEEESQDESSEEEEEYETMTIGESVHDDLYDKKVDEEAEAKMLEKYKQERLEEMFPDEVDTPRDVAARIRFQKYRGLKSFRTSPWDPKENLPQDYARIFQFQNFTNTRKSIFKEVEEKEVEGAEVGWYVTLHVSEVPVSVVECFRQGTPLIAFSLLPHEQKMSVLNMVVRRDPGNTEPVKAKEELIFHCGFRRFRASPLFSQHTAADKHKLQRFLTADMALVATVYAPITFPPASVLLFKQKSNGMHSLIATGHLMSVDPDRMVIKRVVLSGHPFKIFTKMAVVRYMFFNREDVLWFKPVELRTKWGRRGHIKEPLGTHGHMKCSFDGKLKSQDTVLMNLYKRVFPKWTYDPYVPEPVPWLKSEISSTVPQGGME [TSR1] | 48.3 | 50.6 | 0.0446 | 0.699 | 5.63 | -0.634
12 | MASSRCPAPRGCRCLPGASLAWLGTVLLLLADWVLLRTALPRIFSLLVPTALPLLRVWAVGLSRWAVLWLGACGVLRATVGSKSENAGAQGWLAALKPLAAALGLALPGLALFRELISWGAPGSADSTRLLHWGSHPTAFVVSYAAALPAAALWHKLGSLWVPGGQGGSGNPVRRLLGCLGSETRRLSLFLVLVVLSSLGEMAIPFFTGRLTDWILQDGSADTFTRNLTLMSILTIASAVLEFVGDGIYNNTMGHVHSHLQGEVFGAVLRQETEFFQQNQTGNIMSRVTEDTSTLSDSLSENLSLFLWYLVRGLCLLGIMLWGSVSLTMVTLITLPLLFLLPKKVGKWYQLLEVQVRESLAKSSQVAIEALSAMPTVRSFANEEGEAQKFREKLQEIKTLNQKEAVAYAVNSWTTSISGMLLKVGILYIGGQLVTSGAVSSGNLVTFVLYQMQFTQAVEVLLSIYPRVQKAVGSSEKIFEYLDRTPRCPPSGLLTPLHLEGLVQFQDVSFAYPNRPDVLVLQGLTFTLRPGEVTALVGPNGSGKSTVAALLQNLYQPTGGQLLLDGKPLPQYEHRYLHRQVAAVGQEPQVFGRSLQENIAYGLTQKPTMEEITAAAVKSGAHSFISGLPQGYDTEVDEAGSQLSGGQRQAVALARALIRKPCVLILDDATSALDANSQLQVEQLLYESPERYSRSVLLITQHLSLVEQADHILFLEGGAIREGGTHQQLMEKKGCYWAMVQAPADAPE [TAP1] | 49.8 | 50.5 | -0.112 | 0.594 | 1.74 | -0.0535
